This assay deals with human F0F1-ATP synthase (complex V) (human). Description: cell-based or functional assay.

B1: mature CrATP6F polypeptide (Chlamydomonas reinhardtii ATPase 6 subunit of F0F1-ATP synthase with C-terminal FLAG epitope tag, after cleavage of the … (protein)
chain: STAAQVQSGATVNSLLLGIYRFWRSQAPMDKPHAPVDDRMLPAIVDASDNRAALGTWATALFCTILASNLLGLVPTNEAPTSGLGFATGLGVSVWATATTLGLYKLGFSFPGHFIPGGTPWPMAFIFVPLETISYTFRAVSLGVRLWVNMLAGHTLLHILTGMALALPFSLSFFAMVPATFAVACLLSALVGLEYLVAVLQSGVFSILSTVYVGEFNSVKLAGPLAKVVKKALDYKDDDDK
The molecule B1 registered a mitochondrial (oligomycin-sensitive) ATP synthesis in mutant (8993G) cybrids stably transfected with pCrA6F, against untransfected mutant cybrids of 75%.

The values are drawn from patent US20060142223A1.
